Test results from patent US20150368299A1 (published 2015).

T1: Aβ(12-42) globulomer (human)
T1 construct: Non-covalent oligomer; the subunit number was not measured
T1 peptide: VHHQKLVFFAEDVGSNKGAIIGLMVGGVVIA


Legend:
Assay in all cases: dot blot with densitometry; Aβ form dotted on nitrocellulose in serial dilution, antibody 0.2 µg/ml; higher value = weaker recognition
[1] = biological target: T1, Aβ(12-42) globulomer
Method: (§1) The dot blot was developed with 10 ml BM Blue POD Substrate for 10 min. The development was stopped by intense washing of the dot blot with H₂O. Quantitative evaluation was done based on a densitometric analysis (GS800 densitometer (BioRad) and software package Quantity one, Version 4.5.0 (BioRad)) of the dot intensity. […] This threshold value was determined for every dot blot independently. The calculated value indicates the relation between recognition of Aβ(20-42) globulomer and the respective Aβ form for the given antibody.
(§2) The individual Aβ forms were applied in serial dilutions and incubated with the respective antibodies for immune reaction (1=Aβ(1-42) monomer, 0.1% NH₄OH; 2=Aβ(1-40) monomer, 0.1% NH₄OH; 3=Aβ(1-42) monomer, 0.1% NaOH; 4=Aβ(1-40) monomer, 0.1% NaOH; 5=Aβ(1-42) globulomer; 6=Aβ(12-42) globulomer; 7=Aβ(20-42) globulomer; 8=Aβ(1-42) fibril preparation; 9=sAPPα (Sigma); (first dot: 1 pmol)).

[2] = biological target: T2, Aβ(1-42) globulomer (human, UniProt P05067 672-713)
T2 construct: the number was not measured for this preparation; also called 38/48-kDa Aβ(1-42) globulomer; Aβ(1-42) globular oligomer
Method: as §1, §2

[3] = biological target: T3, Aβ(1-42) fibril (human, UniProt P05067 672-713)
T3 construct: also called Aβ(1-42) fibrils; Aβ(1-42) fibril preparation
Method: as §1, §2

[4] = biological target: T4, Aβ(1-42) monomer in 0.1% NH4OH (human)
T4 construct: The range counts on the Aβ peptide; also called Aβ(1-42) monomer, 0.1% NH4OH
Method: as §1, §2

[5] = biological target: T5, Aβ(1-40) monomer in 0.1% NH4OH (human)
T5 construct: The range counts on the Aβ peptide; also called Aβ(1-40) monomer, 0.1% NH4OH
T5 sequence (peptide, as listed by the source): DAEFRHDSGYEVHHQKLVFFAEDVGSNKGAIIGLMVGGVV
Method: as §1, §2

[6] = biological target: T6, Aβ(1-42) monomer in 0.1% NaOH (human)
T6 construct: also called Aβ(1-42) monomer, 0.1% NaOH
Method: as §1, §2

dot blot relation of recognition of Aβ(20-42) globulomer to recognition of this Aβ form [1]	dot blot relation of recognition of Aβ(20-42) globulomer to recognition of this Aβ form [2]	dot blot relation of recognition of Aβ(20-42) globulomer to recognition of this Aβ form [3]	dot blot relation of recognition of Aβ(20-42) globulomer to recognition of this Aβ form [4]	dot blot relation of recognition of Aβ(20-42) globulomer to recognition of this Aβ form [5]	dot blot relation of recognition of Aβ(20-42) globulomer to recognition of this Aβ form [6]	Binder
6	–	–	–	–	–	Anti-Aβ monoclonal antibody clone 6E10 (Covance cat. no. SIG-39320) (antibody, V domains shown) VH: EVQLQQSGAELVKPGASVKLCTASGFNIKDTYIHWVKQRPEQGLEWIGRFDPVNVNTRYDSRFRGKATITSDASSNTAYLHLNSLTSEDTAVYYCSRSYYNGRRRFTYWGQGTLVTVSA VL: DIVMTQSPSSLTVTAGEKVALTCKASQSLLSSGNQKNYLTWYQQKPGQPPKLLIYWASIRESGVPDRFTGSGSGTFFTLTISSVQAEDLAVYYCQNDYNYPFTFGSGTKLEIK
41000	57000	–	–	–	–	murine monoclonal anti-Aβ(20-42) globulomer antibody m10B3 (antibody, V domains shown, Murine hybridoma antibody from mice immunized with Aβ(20-42) globulomer; also called mAb 10B3; Anti-Aβ monoclonal antibody clone m10B3) VH: EVKLVESGGGLVQPGGSRKLSCAASGFTFSDYEMVWVRQAPGEGLEWVAYISSGSRTIHYADTVKGRFTISRDNPKNTLFLQMSSLRSEDTAMYYCARTLLRLHFDYWGQGTILTVSS VL: not shown
60000	30000	32600	36000	27300	39500	murine monoclonal anti-Aβ(20-42) globulomer antibody m4C9 (antibody, V domains shown, Murine hybridoma antibody from mice immunized with Aβ(20-42) globulomer; also called mAb 4C9; Anti-Aβ monoclonal antibody clone m4C9) VH: QVQLQQPGAELVKPGASVKLSCKAPGYTFTSYWMHWVKQRPGQGLEWIGRIDPKSGDTKYTEKFKSKATLTVDKPSSTAYMQLSSLTSEDSAVYYCTTMSKLSGTHAWFAYWGQGTLVTVSA VL: DIKMTQSPSSMYASLGERVTITCKASQDINSYLTWFQQKPGKSPKTLIYRANRLVDGVPSRFSGSGSGQDYSLTISSLEYEDMGIYYCLQYDEFPLTFGAGTKLELK
